These results are taken from the supplement of paper PMC7877785.

± gives the uncertainty stated by the source.

The nature of this series: self-splicing fitness, log relative to wild type (ln ratio); higher = more splicing; Tetrahymena group I intron in knt gene, E. coli kanamycin selection, DiMSum; sequences stand for … in CUCUCU…GGAGGGAAAAGUUAUCAGGCAUGCACCUGGUAGCUAGUCUUUAAACCAAUAGAUUGCAUCGGUUUAAAAGGCAAGACCGUCAAAUUGCGGGAAAGGGGUCAACAGCCGUUCAGUACCAAGUCUCAGGGGAAACUUUGAGAUGGCCUUGCAAAGGGUAUGGUAAUAAGCUGACGGACAUGGUCCUAACCACGCAGCCAAGUCCUAAGUCAACAGAUCUUCUGUUGAUAUGGAUGCAGUUCACAGACUAAAUGUCGGUCGGGGAAGAUGUAUUCUUCUCAUAAGAUAUAGUCGGACCUCUCCUUAAUGGGAGCUAGCGGAUGAAGUGAUGCAACACUGGAGCCGCUGGGAACUAAUUUGUAUGCGAAAGUAUAUUGAUUAGUUUUGGAGUACUCGUGGUCG
The gist of the method: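 DiMSum derived fitness as the error-weighted combination of fold changes across replicates, kanamycin versus no kanamycin, normalised to wild type. E. coli BL21(DE3) held the library, which randomised all eight P1ex-region intron nucleotides within the knt kanamycin-resistance gene on pET-22b(+). Six replicate transformations grew overnight at 37°C or 30°C on LB agar with or without 25 μg/mL kanamycin, also containing 100 μg/mL carbenicillin, 50 μM IPTG and 0.2% rhamnose, and pooled colonies were amplicon-sequenced on an Illumina HiSeq 2500.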

In the case of CAUUAGCAAUAUUACGGAAA, the “self-splicing fitness (ln)” value was -3.86 ± 0.47 (30 °C) and -2.52 ± 0.3 (37 °C). Take ACAGAGCAAUAUUACGGAUA: the “self-splicing fitness (ln)” value (30 °C) is -3.19 ± 0.45. For CUUGAGCAAUAUUACGGGUG, the “self-splicing fitness (ln)” value (30 °C) is -1.24 ± 0.072 and the “self-splicing fitness (ln)” value (37 °C) was -0.485 ± 0.078.

CACAAGCAAUAUUACGGACG: the “self-splicing fitness (ln)” value is -0.358 ± 0.046 (30 °C) and 0.611 ± 0.072 (37 °C). Consider UUAGAGCAAUAUUACGAUAC, for which, under “30 °C”, the “self-splicing fitness (ln)” value is -2.36 ± 0.36.

UCGCAGCAAUAUUACGCAUG: the “self-splicing fitness (ln)” value reads like this: (30 °C) -3.79 ± 0.33; (37 °C) -2.56 ± 0.27. For GCAUAGCAAUAUUACGAUUA, in that order: -1.47 ± 0.18 and 0.017 ± 0.15. For GUCUAGCAAUAUUACGGCCC, in that order: -2.32 ± 0.39 and 0.974 ± 0.31. For AGUCAGCAAUAUUACGGCUA, in that order: -0.605 ± 0.14 and -0.512 ± 0.13. With AUAGAGCAAUAUUACGAGCU, the “self-splicing fitness (ln)” value (30 °C) is -1.71 ± 0.18 and the “self-splicing fitness (ln)” value (37 °C) was -1.15 ± 0.16. For CCUGAGCAAUAUUACGAACU, in that order: -3.4 ± 0.13 and -2.42 ± 0.17. For UAGCAGCAAUAUUACGCGCA, in that order: -0.588 ± 0.11 and -0.487 ± 0.095. For CCGAAGCAAUAUUACGGCGC, in that order: -4.16 ± 0.36 and -2.63 ± 0.49.

Consider CCUGAGCAAUAUUACGGCGC, for which the “self-splicing fitness (ln)” value (30 °C) was -4.1 ± 0.28. ACAGAGCAAUAUUACGGAAG: the “self-splicing fitness (ln)” value (30 °C) was -3.52 ± 0.22 and the “self-splicing fitness (ln)” value (37 °C) was -2.12 ± 0.22. In the case of UGGGAGCAAUAUUACGUUAC, the “self-splicing fitness (ln)” value (30 °C) was -2.73 ± 0.47. In the case of GUGAAGCAAUAUUACGCAGU, the “self-splicing fitness (ln)” value was -2.6 ± 0.22 (30 °C) and -1.02 ± 0.19 (37 °C). As to GUAAAGCAAUAUUACGAGCA, the “self-splicing fitness (ln)” value came to 0.322 ± 0.08 (30 °C) and 0.673 ± 0.11 (37 °C).

With CGAUAGCAAUAUUACGCACG, the “self-splicing fitness (ln)” value (30 °C) is -2.6 ± 0.36 and the “self-splicing fitness (ln)” value (37 °C) is -1.91 ± 0.37. As to CGAAAGCAAUAUUACGAUCA, the “self-splicing fitness (ln)” value is -0.312 ± 0.1 (30 °C) and 0.699 ± 0.13 (37 °C). AUCUAGCAAUAUUACGUCAU: the “self-splicing fitness (ln)” value reads like this: (30 °C) -1.41 ± 0.11; (37 °C) -0.955 ± 0.12. As to UGUAAGCAAUAUUACGCCUA, the “self-splicing fitness (ln)” value was -0.337 ± 0.14 (30 °C) and 0.331 ± 0.15 (37 °C). Consider GGCUAGCAAUAUUACGGUAG, for which the “self-splicing fitness (ln)” value reads like this: (30 °C) -2.31 ± 0.27; (37 °C) -0.259 ± 0.23. For ACGGAGCAAUAUUACGGGUA, in that order: -2.34 ± 0.25 and -3.02 ± 0.32. For UACCAGCAAUAUUACGUGGC, in that order: -4.31 ± 0.22 and -3.66 ± 0.2. As to GAUAAGCAAUAUUACGCCGC, the “self-splicing fitness (ln)” value (37 °C) was -1.99 ± 0.41.

UUCUAGCAAUAUUACGUAAC: the “self-splicing fitness (ln)” value by setting is: (30 °C) -3.19 ± 0.33; (37 °C) -1.32 ± 0.27. For UCUAAGCAAUAUUACGCUCU, in that order: -3.32 ± 0.47 and -2.58 ± 0.41.

As for GAGCAGCAAUAUUACGGUCC, the “self-splicing fitness (ln)” value is -2.93 ± 0.18 (30 °C) and -1.63 ± 0.17 (37 °C). GGCGAGCAAUAUUACGGCCU: the “self-splicing fitness (ln)” value (30 °C) was -2.45 ± 0.23. With UUGAAGCAAUAUUACGCCAU, the “self-splicing fitness (ln)” value was -1.71 ± 0.086 (30 °C) and -1.56 ± 0.12 (37 °C).

For UUAAAGCAAUAUUACGGCAU, the “self-splicing fitness (ln)” value runs as follows: (30 °C) -0.866 ± 0.11; (37 °C) 0.331 ± 0.12. Turning to GGUAAGCAAUAUUACGCUGU, the “self-splicing fitness (ln)” value (30 °C) was -3.25 ± 0.29 and the “self-splicing fitness (ln)” value (37 °C) is -1.65 ± 0.23. For CAGGAGCAAUAUUACGCGUG, in that order: -3.2 ± 0.16 and -2.42 ± 0.17. For GUCUAGCAAUAUUACGUACU, in that order: -0.946 ± 0.11 and -0.0535 ± 0.1.

Take UUACAGCAAUAUUACGACUA: the “self-splicing fitness (ln)” value stood at 0.0835 ± 0.1 (30 °C) and 0.256 ± 0.12 (37 °C).

Consider AAGCAGCAAUAUUACGAGCU, for which the “self-splicing fitness (ln)” value was -1.2 ± 0.079 (30 °C) and -0.815 ± 0.083 (37 °C). Turning to CCGCAGCAAUAUUACGCGGU, the “self-splicing fitness (ln)” value runs as follows: (30 °C) -3.18 ± 0.16; (37 °C) -2.5 ± 0.22.

Turning to CACAAGCAAUAUUACGAAGC, the “self-splicing fitness (ln)” value (30 °C) is -4.44 ± 0.28 and the “self-splicing fitness (ln)” value (37 °C) was -1.87 ± 0.19. As for CCGUAGCAAUAUUACGUGAC, the “self-splicing fitness (ln)” value (30 °C) is -2.36 ± 0.15.
